The values that follow come from the NTF2 design screens of Basanta et al. (2020).

The nature of the series: protease stability score; higher = more stable; yeast display proteolysis, trypsin and chymotrypsin.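 Also: log10 excess protease needed over predicted unfolded state with 0 meaning unfolded.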
Regarding “DEKEVKDADKEMERLMKKNDFQHIVDQMDPNAKIIVGDQDLHGKEEAEKVAQEMDKQIDSIEVKSVHAHGDKAVVHFVNHHNGRNKRVVITLRWSNGRIQEMQIQDQ”, the protease stability score is -0.157. In turn, “DSERASEAARTFVDAMRTNDEKQFNELFDPNARVRIGDEKVHGMDRITDQLHNLNKKADHNEVLDYKVNGNTAVVHFQVDHNGQTRRYRIVITMHNGRVHEMQVNTK” yielded a protease stability score of 0.458. The value for “DEDQAKEQVDNARKVINQGNFSEAVKTADPNVKAAYGEKRLEGRQVLHTYQEVFQRRVDHVHVRRVDLKGEKATIKAELTINGRTTTMRMVVEVSNGRLKNFYVKYK” was 0.145. With “DSEAQKIAEKLHEAWNTNNPNEAQHLMDPNAHVRVGDKEIDGMDQYVREMQRLLDKLRLEVKDWDVRAHNGNVTLRANARVDVNGQPQEYTYVIVMQVKNGRVKELHLHIDEEELRTLES” the figure was 1.02. With “DDDTTAKKAIDDFIENFEHGDPKEADKQADENVRVEYGDKEVDGRHQMAHWLVKLVERVDHVRWHIHEVRMDNGKINVIFENKQKFDGRTEDREFHMTADTRDGRIQLTSVHEK” the figure was 0.491; with “DEEAAKHVNRMLEKGDEKKIAQHVDKDARAHVGNQELHGREDIIRAVTRFRQQADHMRVDSYEVQGDRIEVTFEVVVNGHKMQLKATIRVDNGRIKHNKIQARSEEQTKQMQKLLD”, -0.171. On to “DDEQINEFVKVMKTNDFKRLMDQADPNVSVSIGNFTVKGDKQAQKAARDLEEQADHIQIDSLTAHDGRLDVTLQMVFNGRDIRMSIKAEAHNGRLKSMKFQATSEEIEKILDEVLR”, for which the protease stability score was -0.142. Sequence “DSHQQAREMVRELQRILETNDTDKWRHMFDPNARAQYGDKEYHGRDQVTHYLQEQTQRVDSVRVNIDEVDVSGDKLRVVFTLVRVHNGEEKSDTYVFVLRFHGDHARIESFRRK” came in with a protease stability score of 0.687. Turning to “DTENEKLQRRFMKALKTNDPHRAREMADENAKVQVGDKRIHGMQTVVEDLEREWREQRNDVKVRSVSNEGNKVNMDATMKVEHNGKPKHFNVVYRATVHNGRIHELRVERDG”, the protease stability score stood at 0.088. The value for “DEEELDRLQKQLERNDWETFVRQADENVKVKYGDRSLHGHEDFNKYMKRLHDQVDHYQLNRVTNHGDHLQARVVFRFNGQNIDMTFEVRVHNGRIQEVVFHFTDPRTHKQFKENMD” was 1.42. With “DREDLAREMVERLEDIMKHNNEKELVNQMDENVRMTIGDKEYEGREAATKEAHDLFRRADHLRLSVETFNVQGDKAVITFQVVFNHNGRKSHDRVILDFRISGDKVKLVSQTKG” the figure was 0.509; with “EEEKLEKMVKDVFEAVQKGNMEELKQYLKEDVRFQFGDNRYQGVDQYVKLMKTMTEQGVQFEFKKFQMKDNTVTMETEAKYADHEVRVKAEARYEGGRLDEARVELTEEAKEIYKKG”, 1.17; with “DEDASKQVEDFERALKTGDENRLHELMDKDARVEVGDKRYHGRKQIARQQVQHYEEMRVDLHVQDIDVQGDKIKVDVTRQIEVNGKPISNRIIIYVTIHNGKIQRMDVDVPDEDMDKIEK”, 0.769.

“DEEQVKKVVKVLMEYFKRGDVDQIVRMIDEDVEFKLLDEKKKGQEQVKTVIKKLHDQGAEVHVDHAEVEGDKATVDTRWHIGDHTMEATVEYYVEGDRVKKVKVQWSEEAKKALHAG”: the protease stability score was 1.06. With “DERAIRTVTRFWTAIKHNDPDKAVENVDPNARFRIGDREVDGDEDAKQWIEEMKRHMHIDIRSLRARDQGDKIEINFKFVISYNGRPQSQTQHATARVHNGKIHEVDINFDDQKKRELDS” the figure was -0.006; with “DERDNKVVEEYIKALQRGDPKQARRQADPNARFQVGDTELHGMDDVARKIERETKQWRLEIHHVKVDVKGDKMTIRLDFVVEVNGHPKRMNLTVEAHAHNGKIKEMVMHVDPKQEEELKS”, 0.188; with “DNKDQARRLLNELRKAMKQNDEDRMRQLMDPNARATYGDKTVHGREELAERIIKEVKRADHVDLQVDDIKTQGNKLTVEVTIRIDVNGKTINTRYVLYAEVSNGRFNIRQIHQQ”, 0.544.

As to “DRQNKAQDLAEELRRAFHTNNEDQFKKLADKNARATVGEHTFHGSDEIRKVLKELVDNVDHLRVDIHSVSVHNGQINIDMKLILDHNGRKETQEVHIRAQDHNGQNKVRNITFG”, the protease stability score is -0.154. The value for “DEDRRAREWVETMQDIVENNNERDMKKLFDPNARVSVGDREYHGEDEIAHVLQREMENADNIHIEVKSIIVHGDKVTVDLTVSVQVNGKTETDRVRMVLKDKDGRIQVVSVQQT” was 0.597; that for “DEKKVHEVLKKLRKALEQGNVDEMVKMGKPDVEFHFFDTKIEGLDQLHEYYKTMKDHGAELHVEETKVEGNKVEVVYVLKLGGTQVKVTAQIEIKDERVVRARAENTEEYKKRVKKG” was 0.359. With “DKDAARRVQEMIRQQQTGNPTEVEEQADKDVEFKVGDKVVHGRRELKKEVETHKRESRLEVQKIEIKDHGDKAKLIIYFRVHENGEPRKRTVQVRAKYQNGKVKMIEVDSTK” the figure was -0.006. The value for “EEHLQKTVEEMIKLIRHGNEHKVQENIDPNARIVIGEKRIRGRETFAHLLSKRHKEQRYEVREIKLTVQGEKVKVSMDVVADINGKPIRFSIDMFLHASNGKVKDIQYRISEEQRDKQQG” was -0.033; that for “DEEDEKHIDDVLKQGDFDEMARNADKDATVRIGEKEYRGREDVVRMLEIIHKRADEVHVDSVRVTNGRLKMDVVFDVNGVQANVILVINVHNGKIKNITLKYRNEELSRKLDKILR” was 0.821; that for “DDQERREIAKNFQRGNEQVVKKLVDPNARIRVGDKTLHGRDQMSHVFKRLQEQVDHIDVKHYTISGEHIVIDAIFVINGKNIRMVIVVQVENGRVKRVDFKYTNEEQKKQLERDLS” was 0.004. Turning to “DEEQKKHVKEMIEAERTGNEEQARKLVDEDVRANYGDHEVHGRETLRKHVRDVKREWSVQIDDVKLRVHNGRVQMHFDFVRDENGRPEKMTATATAEAHNGKIKEINRQDHK”, the protease stability score was -0.204. The value for “DEDKEDRVRTWVEAQKTGDPDKAKENADPNVRVEYGDKTIHGMSEIVKHIKREKHESRRTIDSYSVSASGDHITVRIDMHVKHDGQPRRKDYTETIVIRNGKIRHIKRRDDK” was 0.36; that for “EEEAREAVKRVMKAHETNDPDKMMQNFDPNAKLTIGDTELHGREEARKHWEDNLKEIEIRIETWHVEDEGDKATLKVVYVREHNGQPTRERAVVYLRVKNGKVQTVSNQSRK” was 0.292. With “DETAVTVLTEIVKAQRQGDHNRFNELVDPNAKIRVGDKRVTGREQLTHEFHKNLKHMRVHQKVHDMKDHNGRVQATAQRRSNHNGKPKEVEVQFQATARNGRLTQMEMHSSG”, the protease stability score is -0.643. The value for “DEDDKQRHAEKYAKLWQEGNEDELQKQMDPNAKVVVGEKRLKGREQIKKWLEEWRKHADEVQVISVSVEGERLVIRFRANINGKTYHDTQTMIYDNGEIQDVRFDPKWLHDLKR” was 0.625; that for “DHDLVKHLESFIKNLQDGDDDKLAKYADPNAHIEVGDKVVSGRKQLQEEVRRQRKRMRISLDVKDVKAHNGQADVTFDQRVEVNGRPWQNRYTVIFFLHNGTLREARFDIPEREQRKLES” was 0.189; that for “DEEVQELVERIMTAFRTGNPEEVHKNLDPNAHIEVGDKRLHGMETIVHTIERKLRHARIDMKIDEMEVRNGRVEARVSFHVDVNGEPYSNSFSFQIEARNGKVKKVRVQIDPRDQRKMDS” was 0.877.

For the sequence “DDRDIKQAADRFLEDIKTNNPENVRKLVDENARVQIGDKQYRGKERIQEAMEEWIKRVDHWRIEDIKIHGDQVHVKMRINVNGRNLTFIMVVSIKNGTLKTLTMNVTDTEKLREMLR”, the protease stability score came out at 1.27.

Regarding “DEKQLHRVRHFLEVVRQGDEDNLREMADPNVRMVVGDKQFHGREEAVKFLVHKAKELRIDVKFKTINVRGDKVKAVAEMTENQNGKPHHAKLTWEIQMSNGKIQQLDFKLST”, the protease stability score worked out at 0.275. “EDRERAKELVKRLTDAFRTNNPDDYVRQAPPDVTMQVGDKQYHGRSKVKEWIKQILDRVDHLKIELVDVKRSGEKLRFKAEYHYEHNGKTDRNTMEMVFTIQGDKMKIDDATQQ”: the protease stability score was 0.134. The value for “DESAQRLFEELLKAEHDGDRDRYQQLIDPNARIQVGDKSVKGRENIKHDVYRKHKEIRFSIQSMNNKVDGDKVKVDAKVVKEHDGRPDHAQITATVRARGDKVDEIRKEERK” was -0.245; that for “DEKDKATKMMETIKQAWDRNNPQQVASQFDKDAHIRVGDKMIHGHEQLKEFVQDVLDTYDHIKLTVTSVKQHNGRVVIVVQVHLEHNGRNDTRHYVVIIEVDNGHIRIKTMVDK” was 1.16; that for “DEELHEWVKEYLKALQHNDPNQFKRLADPNVRYHVGDKEVHGREEWAKLVEKRRDSMRLEMKSVSIDAQGNKARVRLRFVEEHDGRPKEFEADFDFHVSNGKLVTVKVDEDQ” was 0.123. The value for “DEELLKELLKYLKVREHGDKDKFERMADPNAKIHVGDREVHGREHLAKEIKTEKEEMEVSVDRYTQRVNGDKARLKVDFKVEHNGKPERRAHVLVMHTHNGKIKSLKAQDTD” was -0.111. The value for “DDELVRSAEHLFKVWQDGNPDEAKRYMDPNAELKVGDKTVHGRDDANRWVEQLQRELRYHFTINNVERQGNTVVIKATATEHHNGKPKTYSVDIEIEAQNGKVKLVIIRING” was -0.09. In the case of “DEQRQAEEWVDKLESELHDGDFTKFANMADENARIVIGDKEIHGRENLQEHAKELKHRVDHVEMHVRHLYVTNGTLTVDVDMVLNHNGQRDKRRVVIVATSENGKFRAQHVTYS”, the protease stability score is 1.05. With “DERDLEEVNRLVKHGNWHEFVKNADKNVRARVGDKRVHGREHFKSLAENWRRRIDHQSIKFVDVQGERAVVTMKMNVNGKTVEVMFSFVVSNGHIKEYEMRARNDDDETRLQEVRS” the figure was 0.478. The value for “DEDVKRVMEELVKVMHNNDPNEFMKLLDPNARWTIGDKTYHGRDNLRREVKKHHDQQRVQYKSWHIDVHGERATATAEVRVDHNGQPDTFRLVISAQAHNGRVKRAEYRKDT” was -0.145; that for “DEKALNHANKMLEAYETGNEKQVADQVDKDVRVEIGDKFYHGRENLRERMKKLMKEARFRITVKSVKVQGDQAKIDAEVTHTHNGQPRKRHMSMTVDVQGDKIKQVHVQYHG” was 0.523. With “DEHKEREIAERYAQNLTHGNPTEIARQFDPNVKMTVGDKELQGREQVEEALHNFRERVDHHSYDTFTVSNGRVNISAQANVDGKNVKVDVRVVVNNGRVKDVKINPEQWKHVQG” the figure was -0.234; with “DESEMQKAVEDIVKMLETGNETKFQENAPPDVRVDVGDKRFTGREDLRKWVHDVKERVDRIRVTHYSAHGEDVVIDVVYRHNGTNERANIVVHIHNGRMVQMKVQQS”, 0.944. As to “DEHAIKLLKKIYEAWEEGDPDEARENADPNARYIIGDKTLHGMENIVKEWQRRYDESRIDYKHIDVQDDNGRANADVRYVVQHNGRPERKTMTVIVEVHNGRVTQIHFQDTQ”, the protease stability score was -0.01. With “DETQMDHIRRFFEAVVNGDPDELERQADPNVKFSVGNQQWHGENQLKKEAEKRRKEIRINIKSMEVRVHGDSVVVHIRQEVEVNGQPEDITFTMTVEVSNGKIKSVDVQMDQQEERNVQR” the figure was -0.342.
